Source: patent US20250320305A1
Values belong to the binder of their own block, whether it stands above or below them.

Assays:
[1] = molecular target: biotinylated recombinant human FAP (human) (UniProt Q12884); test: SPR (Biacore)
[2] = molecular target: biotinylated recombinant human FAP (human) (UniProt Q12884); test: SPR (Biacore), biotinylated huFAP on CAPture chip, Fab analyte
[3] = molecular target: human CD40 expressed on cells (human) (UniProt P25942); test: flow cytometry, Raji cells
[4] = molecular target: human CD40 extracellular domain with C-terminal His-AviTag (human) (UniProt P25942); test: SPR, antibody captured, CD40 ECD analyte
[5] = molecular target: human CD40 expressed on cells (human) (UniProt P25942); test: flow cytometry, primary human B cells

Kd [1]: 0.279 nM
T ½ [1]: 55 min
koff [1]: 0.000208 s⁻¹
kon [1]: 747000 M⁻¹ s⁻¹
Kd [2]: 0.43 nM
koff [2]: 0.00078 s⁻¹
kon [2]: 1.82e+06 M⁻¹ s⁻¹
B1: 4B9_Fab (Fab, from a related filing, V domains shown)
VH: EVQLLESGGGLVQPGGSLRLSCAASGFTFSSYAMSWVRQAPGKGLEWVSAIIGSGASTYYADSVKGRFTISRDNSKNTLYLQMNSLRAEDTAVYYCAKGWFGGFNYWGQGTLVTVSS
VL: EIVLTQSPGTLSLSPGERATLSCRASQSVTSSYLAWYQQKPGQAPRLLINVGSRRATGIPDRFSGSGSGTDFTLTISRLEPEDFAVYYCQQGIMLPPTFGQGTKVEIK

EC50 [3]: 0.09 µg/mL
Kd [4]: 4.6 nM
koff [4]: 0.00781 s⁻¹
kon [4]: 1.69e+06 M⁻¹ s⁻¹
EC50 [5]: 0.333 nM
B2: P1AD4470, anti-CD40 control antibody (CD40 IgG1) (antibody, from a related filing, V domains shown)
VH: EVQLVESGGGLVQPGGSLRLSCAASGYSFTGYYIHWVRQAPGKGLEWVARVIPNAGGTSYNQKFKGRFTLSVDNSKNTAYLQMNSLRAEDTAVYYCAREGIYWWGQGTLVTVSS
VL: DIQMTQSPSSLSASVGDRVTITCRSSQSLVHSNGNTFLHWYQQKPGKAPKLLIYTVSNRFSGVPSRFSGSGSGTDFTLTISSLQPEDFATYFCSQTTHVPWTFGQGTKVEIKR
